Experimental data taken from patent US20240209076A1 (KODIAK SCIENCES, published 2024).
Substitutions are numbered along the chain they refer to. In names and notes the source's numbering stands.

B1: anti-IL-6 Fab, light chain S26G (Fab, V domains shown)
VH: EVQLVESGGGLVQPGGSLRLSCAASGFTFSPFAMSWVRQAPGKGLEWVAKISPGGSWTYYSDTVTGRFTFSLDTSKSTAYLQMNSLRAEDTAVYYCARQLWGYYALDIWGQGTLVTVSS
VL: DIQLTQSPSSLSASVGDRVTITCSAGISVSYMYWYQQKPGKAPKLLIYDMSNLASGVPSRFSGSGSGTDFTLTISSLQPEDFATYYCMQWSGYPYTFGQGTKVEIK
notes: see m39
B2: anti-IL-6 Fab, light chain S26H (Fab, V domains shown)
VH: B1 VH
VL: B1 VL with G26H
notes: see m39
B3: anti-IL-6 Fab, light chain S26K (Fab, V domains shown)
VH: B1 VH
VL: B1 VL with G26K
notes: see m39
B4: anti-IL-6 Fab, light chain S28E (Fab, V domains shown)
VH: B1 VH
VL: B1 VL with G26S, S28E
notes: see m39
B5: anti-IL-6 Fab, light chain S28W (Fab, V domains shown)
VH: B1 VH
VL: B1 VL with G26S, S28W
notes: see m39
B6: anti-IL-6 Fab, light chain S30A (Fab, V domains shown)
VH: B1 VH
VL: B1 VL with G26S, S30A
notes: see m39
B7: anti-IL-6 Fab, light chain S30G (Fab, V domains shown)
VH: B1 VH
VL: B1 VL with G26S, S30G
notes: see m39
B8: anti-IL-6 Fab, light chain S51D (Fab, V domains shown)
VH: B1 VH
VL: B1 VL with G26S, S51D
notes: see m39
B9: anti-IL-6 Fab, light chain S51K (Fab, V domains shown)
VH: B1 VH
VL: B1 VL with G26S, S51K
notes: see m39
B10: anti-IL-6 Fab, light chain S51R (Fab, V domains shown)
VH: B1 VH
VL: B1 VL with G26S, S51R
notes: see m39
B11: anti-IL-6 Fab, light chain S55I (Fab, V domains shown)
VH: B1 VH
VL: B1 VL with G26S, S55I
notes: see m39
B12: anti-IL-6 Fab, light chain S55L (Fab, V domains shown)
VH: B1 VH
VL: B1 VL with G26S, S55L
notes: see m39
B13: anti-IL-6 Fab, light chain S55P (Fab, V domains shown)
VH: B1 VH
VL: B1 VL with G26S, S55P
notes: see m39
B14: anti-IL-6 Fab, light chain S55R (Fab, V domains shown)
VH: B1 VH
VL: B1 VL with G26S, S55R
notes: see m39
B15: anti-IL-6 Fab, light chain S55V (Fab, V domains shown)
VH: B1 VH
VL: B1 VL with G26S, S55V
notes: see m39
B16: anti-IL-6 Fab, light chain S55W (Fab, V domains shown)
VH: B1 VH
VL: B1 VL with G26S, S55W
notes: see m39
B17: anti-IL-6 Fab, light chain S55Y (Fab, V domains shown)
VH: B1 VH
VL: B1 VL with G26S, S55Y
notes: see m39
B18: anti-IL-6 Fab, light chain S91A (Fab, V domains shown)
VH: B1 VH
VL: B1 VL with G26S, S91A
notes: see m39
B19: anti-IL-6 Fab, light chain S91K (Fab, V domains shown)
VH: B1 VH
VL: B1 VL with G26S, S91K
notes: see m39
B20: anti-IL-6 Fab, light chain T96I (Fab, V domains shown)
VH: B1 VH
VL: B1 VL with G26S, T96I
notes: see m39
B21: anti-IL-6 Fab, light chain T96L (Fab, V domains shown)
VH: B1 VH
VL: B1 VL with G26S, T96L
notes: see m39
B22: anti-IL-6 Fab, light chain T96V (Fab, V domains shown)
VH: B1 VH
VL: B1 VL with G26S, T96V
notes: see m39
B23: anti-IL-6 Fab, light chain V29L (Fab, V domains shown)
VH: B1 VH
VL: B1 VL with G26S, V29L
notes: see m39
B24: anti-IL-6 Fab, light chain Y31F (Fab, V domains shown)
VH: B1 VH
VL: B1 VL with G26S, Y31F
notes: see m39
B25: anti-IL-6 Fab, light chain Y31G (Fab, V domains shown)
VH: B1 VH
VL: B1 VL with G26S, Y31G
notes: see m39
B26: anti-IL-6 Fab, light chain Y33F (Fab, V domains shown)
VH: B1 VH
VL: B1 VL with G26S, Y33F
notes: see m39
B27: anti-IL-6 Fab, light chain Y48F (Fab, V domains shown)
VH: B1 VH
VL: B1 VL with G26S, Y48F
notes: see m39
B28: anti-IL-6 Fab, light chain Y48W (Fab, V domains shown)
VH: B1 VH
VL: B1 VL with G26S, Y48W
notes: see m39
B29: anti-IL-6 Fab, light chain Y95G (Fab, V domains shown)
VH: B1 VH
VL: B1 VL with G26S, Y95G
notes: see m39
B30: anti-IL-6 Fab, light chain Y95I (Fab, V domains shown)
VH: B1 VH
VL: B1 VL with G26S, Y95I
notes: see m39
B31: anti-IL-6 Fab, heavy chain A97V (Fab, V domains shown)
VH: B1 VH with A97V
VL: B1 VL with G26S
B32: anti-IL-6 Fab, heavy chain Y104V (Fab, V domains shown)
VH: B1 VH with Y104V
VL: B1 VL with G26S
B33: anti-IL-6 Fab, heavy chain Y103S (Fab, V domains shown)
VH: B1 VH with Y103S
VL: B1 VL with G26S
B34: anti-IL-6 Fab, heavy chain I108S (Fab, V domains shown)
VH: B1 VH with I108S
VL: B1 VL with G26S
B35: anti-IL-6 Fab, heavy chain Q99A (Fab, V domains shown)
VH: B1 VH with Q99A
VL: B1 VL with G26S

target: recombinant human IL-6 (human, UniProt P05231 30-212); experiment: SPR, IL-6 on CM5 chip, Fab lysate, 25 C
Method: Three ranges of antigen density (100-150 RU, 300-400 RU, 400-600 RU) were obtained by using variable flow times for each chip channel, later blocked with ethanolamine. Supernatants of the 96-well filtered culture lysates were injected at 50 μL/min for 120 seconds. Fitting of dissociation curves (300 seconds) to single exponential decay curve was used for the determination of dissociation rates (koff). Chip surfaces were regenerated with 10 mM Glycine pH 1.7 solution injected at 50 μL/min during 60 seconds after every cycle of sample binding and dissociation.

Chain of recombinant human IL-6 (P05231 30-212 limits assumed): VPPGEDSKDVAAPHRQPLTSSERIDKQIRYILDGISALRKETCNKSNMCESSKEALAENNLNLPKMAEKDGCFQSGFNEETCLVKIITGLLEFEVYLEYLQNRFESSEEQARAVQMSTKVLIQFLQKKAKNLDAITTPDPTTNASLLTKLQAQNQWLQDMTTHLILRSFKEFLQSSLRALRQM

| Binder | koff [s⁻¹] |
| --- | --- |
| B1 | 0.00394 |
| B2 | 0.00427 |
| B3 | 0.00441 |
| B4 | 0.00451 |
| B5 | 0.00398 |
| B6 | 0.00654 |
| B7 | 0.00677 |
| B8 | 0.00466 |
| B9 | 0.00461 |
| B10 | 0.00467 |
| B11 | 0.00505 |
| B12 | 0.00507 |
| B13 | 0.0052 |
| B14 | 0.00526 |
| B15 | 0.00516 |
| B16 | 0.0051 |
| B17 | 0.00508 |
| B18 | 0.00559 |

| Binder | koff [s⁻¹] |
| --- | --- |
| B19 | 0.00549 |
| B20 | 0.00423 |
| B21 | 0.00478 |
| B22 | 0.00504 |
| B23 | 0.00543 |
| B24 | 0.0051 |
| B25 | 0.00511 |
| B26 | 0.00618 |
| B27 | 0.00537 |
| B28 | 0.00563 |
| B29 | 0.00462 |
| B30 | 0.00608 |
| B31 | 0.00412 |
| B32 | 0.00381 |
| B33 | 0.00502 |
| B34 | 0.00352 |
| B35 | 0.00388 |
